Results taken from patent US7335638B2, “Prevention and treatment of mycoplasma-associated diseases” (priority 2000, dated 2008).

Tested on: adenocarcinoma of Walker
Test: Treatment of experimental adenocarcinoma in rats (Walker tumor)
Format: in vivo, rat
Settings: both died after 12 days of treatment; prolactine added to TS, PDTC and plant extract
Source text: Malignant neoplasia was induced experimentally by inoculation of 500,000 cells of adenocarcinoma of Walker in the right flank of several rats in order to verify if the use of simultaneous anti-proliferative and anti-oxidative drugs may decrease the growing of the neoplasia and the level of metastases. Usually the animals receiving such inoculation of adecarcinoma cells survived for 10-12 days and presented metastasis to many ganglia, liver and lung. Nine of these animals were inoculated after 7 days of tumor cells with 0.5 ml of trans-sialidase TS (supernatant of culture of T. cruzi) as described in the U.S. patent application Ser. No. 10/086,913, filed Mar. 1, 2002 and with 0.75 mg of PDTC, into the peritoneum every day. The particles containing DNA or RNA prepared from plant extracts (garlic, Ginkgo biloba and tomato) as described above was also administered. All animals received 0.5 ml of garlic extract by subcutaneous route (Table 1 below). The tumors were similar in size for all animals at the beginning of the treatment, i.e. 2.8×2.7 cm.
Rats 1-4 were followed until death. Rats 3 and 4 received 0.5 ml of Ginkgo biloba's extract, every day. The tumors increased slower in all 4 animals receiving plant extracts than the controls. […]
Prolactin and/or growth hormone administration to diminish these effects was also evaluated. […]

B1: prolactine: ovine prolactine from Sigma, neuroendocrine hormone (protein, UniProt P01240 31-229, looked up)
Prolactin: TPVCPNGPGNCQVSLRDLFDRAVMVSHYIHNLSSEMFNEFDKRYAQGKGFITMALNSCHTSSLPTPEDKEQAQQTHHEVLMSLILGLLRSWNDPLYHLVTEVRGMKGVPDAILSRAIEIEEENKRLLEGMEMIFGQVIPGAKETEPYPVWSGLPSLQTKDEDARHSAFYNLLHCLRRDSSKIDTYLKLLNCRIIYNNNC
tumor at necropsy, Rat 4 compared with Rat 1: smaller size of the tumor with less microscopic necrosis
